Publication PMC10212944

B1: (dT)97 (ssDNA)
DNA: TTTTTTTTTTTTTTTTTTTTTTTTTTTTTTTTTTTTTTTTTTTTTTTTTTTTTTTTTTTTTTTTTTTTTTTTTTTTTTTTTTTTTTTTTTTTTTTTT

Tests used:
RPA (wild type) [1] = target: T1, RPA (wild type) (Homo sapiens, UniProt P27694;P15927;P35244 1-616;1-270;1-121); assay: fluorescence anisotropy; stoichiometric binding; Stopped flow: 30 mM HEPES pH 7.8, 100 mM KCl, 5 mM MgCl2, 6% glycerol, 1 mM b-ME, 25 C; anisotropy: 50 mM Tris-acetate pH 7.5, 50 mM KCl, 5 mM MgCl2, 1 mM DTT; conditions: protein: recombinant; copies: 1;1;1; label: 5'-FAM
T1 sequence (P27694 whole entry, chain 1 of 3): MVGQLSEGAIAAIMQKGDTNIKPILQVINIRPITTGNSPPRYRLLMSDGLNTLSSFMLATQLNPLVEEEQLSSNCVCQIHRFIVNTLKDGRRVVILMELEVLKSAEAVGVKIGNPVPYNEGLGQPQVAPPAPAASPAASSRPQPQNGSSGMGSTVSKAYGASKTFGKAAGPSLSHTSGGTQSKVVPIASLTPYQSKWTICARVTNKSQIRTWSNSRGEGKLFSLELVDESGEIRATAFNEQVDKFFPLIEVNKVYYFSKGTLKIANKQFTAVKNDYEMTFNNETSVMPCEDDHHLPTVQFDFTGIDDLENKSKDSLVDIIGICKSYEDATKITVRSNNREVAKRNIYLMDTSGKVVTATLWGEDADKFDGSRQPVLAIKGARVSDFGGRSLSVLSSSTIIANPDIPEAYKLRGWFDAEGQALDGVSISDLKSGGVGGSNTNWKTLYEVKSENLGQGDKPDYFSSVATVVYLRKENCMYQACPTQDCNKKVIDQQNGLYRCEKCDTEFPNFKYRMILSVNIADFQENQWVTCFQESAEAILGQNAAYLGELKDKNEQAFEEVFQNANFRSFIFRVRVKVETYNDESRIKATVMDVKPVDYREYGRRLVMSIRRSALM
T1 sequence (P15927 whole entry, chain 2 of 3): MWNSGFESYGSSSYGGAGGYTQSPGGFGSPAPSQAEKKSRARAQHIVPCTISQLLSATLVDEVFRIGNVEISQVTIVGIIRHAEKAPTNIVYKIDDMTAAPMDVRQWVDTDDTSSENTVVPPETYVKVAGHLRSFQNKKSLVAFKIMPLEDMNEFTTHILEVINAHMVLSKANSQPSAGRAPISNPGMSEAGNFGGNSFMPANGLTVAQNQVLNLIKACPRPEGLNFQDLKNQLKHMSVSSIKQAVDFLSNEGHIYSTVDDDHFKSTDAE
T1 sequence (P35244 whole entry, chain 3 of 3): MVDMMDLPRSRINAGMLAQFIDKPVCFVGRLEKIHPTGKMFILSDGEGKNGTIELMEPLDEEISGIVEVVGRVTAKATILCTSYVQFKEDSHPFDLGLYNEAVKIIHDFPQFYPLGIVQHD

RPA S384D [2] = target: T2, RPA S384D (Homo sapiens, UniProt P27694;P15927;P35244 1-616;1-270;1-121, S384D); assay: fluorescence anisotropy; stoichiometric binding; same as WT; Stopped flow: 30 mM HEPES pH 7.8, 100 mM KCl, 5 mM MgCl2, 6% glycerol, 1 mM b-ME, 25 C; anisotropy: 50 mM Tris-acetate pH 7.5, 50 mM KCl, 5 mM MgCl2, 1 mM DTT; conditions: protein: recombinant; copies: 1;1;1; label: 5'-FAM
T2 sequence (P27694 whole entry S384D, chain 1 of 3): as the sequence (P27694 whole entry, chain 1 of 3) above, with S384D counted along it
T2 sequence (P15927 whole entry, chain 2 of 3): as the sequence (P15927 whole entry, chain 2 of 3) above
T2 sequence (P35244 whole entry, chain 3 of 3): as the sequence (P35244 whole entry, chain 3 of 3) above

RPA S384D [3] = target: T2, RPA S384D; assay: size exclusion chromatography; major 1:1, minor 2:1 protein:DNA; Stopped flow: 30 mM HEPES pH 7.8, 100 mM KCl, 5 mM MgCl2, 6% glycerol, 1 mM b-ME, 25 C; anisotropy: 50 mM Tris-acetate pH 7.5, 50 mM KCl, 5 mM MgCl2, 1 mM DTT; conditions: protein: recombinant; copies: 1;1;1
RPA (wild type) [4] = target: T1, RPA (wild type); assay: stopped-flow Trp fluorescence (koff/kon); kon 5.2e10 M-1 s-1, koff 39 s-1 as printed; Stopped flow: 30 mM HEPES pH 7.8, 100 mM KCl, 5 mM MgCl2, 6% glycerol, 1 mM b-ME, 25 C; anisotropy: 50 mM Tris-acetate pH 7.5, 50 mM KCl, 5 mM MgCl2, 1 mM DTT; conditions: protein: recombinant; copies: 1;1;1
RPA (wild type) [5] = target: T1, RPA (wild type); assay: competition (facilitated exchange, stopped-flow FRET); displaces Cy3/Cy5-RPA, kFE 1.8 s-1; Stopped flow: 30 mM HEPES pH 7.8, 100 mM KCl, 5 mM MgCl2, 6% glycerol, 1 mM b-ME, 25 C; anisotropy: 50 mM Tris-acetate pH 7.5, 50 mM KCl, 5 mM MgCl2, 1 mM DTT; conditions: protein: recombinant; copies: 1;1;1
RPA S384D [6] = target: T2, RPA S384D; assay: competition (facilitated exchange, stopped-flow FRET); displaces Cy3/Cy5-RPA, kFE 0.9 s-1; Stopped flow: 30 mM HEPES pH 7.8, 100 mM KCl, 5 mM MgCl2, 6% glycerol, 1 mM b-ME, 25 C; anisotropy: 50 mM Tris-acetate pH 7.5, 50 mM KCl, 5 mM MgCl2, 1 mM DTT; conditions: protein: recombinant; copies: 1;1;1

| Binder | binding result (RPA (wild type) [1]) | binding result (RPA S384D [2]) | also measured |
| --- | --- | --- | --- |
| TTTTTTTTTTTTTTTTTTTT (ssDNA) [5'-FAM-(dT)20] | binds | binds | – |
| TTTTTTTTTTTTTTTTTTTTTTTTTTTTTTTTTTT (ssDNA) [(dT)35] | – | – | binding result (RPA S384D [3]): binds; Kd (RPA (wild type) [4]): 0.75 ± 0.4 nM |
| TTTTTTTTTTTTTTTTTTTTTTTTTTTTTTTTTTTTTTTT (ssDNA) [5'-FAM-(dT)40] | binds | binds | – |
| B1 | – | – | binding result (RPA (wild type) [5]): binds; binding result (RPA S384D [6]): binds |
